Data published in patent EP2468776.

Target: T1, Slit2-His (UniProt O94813)
T1 chain: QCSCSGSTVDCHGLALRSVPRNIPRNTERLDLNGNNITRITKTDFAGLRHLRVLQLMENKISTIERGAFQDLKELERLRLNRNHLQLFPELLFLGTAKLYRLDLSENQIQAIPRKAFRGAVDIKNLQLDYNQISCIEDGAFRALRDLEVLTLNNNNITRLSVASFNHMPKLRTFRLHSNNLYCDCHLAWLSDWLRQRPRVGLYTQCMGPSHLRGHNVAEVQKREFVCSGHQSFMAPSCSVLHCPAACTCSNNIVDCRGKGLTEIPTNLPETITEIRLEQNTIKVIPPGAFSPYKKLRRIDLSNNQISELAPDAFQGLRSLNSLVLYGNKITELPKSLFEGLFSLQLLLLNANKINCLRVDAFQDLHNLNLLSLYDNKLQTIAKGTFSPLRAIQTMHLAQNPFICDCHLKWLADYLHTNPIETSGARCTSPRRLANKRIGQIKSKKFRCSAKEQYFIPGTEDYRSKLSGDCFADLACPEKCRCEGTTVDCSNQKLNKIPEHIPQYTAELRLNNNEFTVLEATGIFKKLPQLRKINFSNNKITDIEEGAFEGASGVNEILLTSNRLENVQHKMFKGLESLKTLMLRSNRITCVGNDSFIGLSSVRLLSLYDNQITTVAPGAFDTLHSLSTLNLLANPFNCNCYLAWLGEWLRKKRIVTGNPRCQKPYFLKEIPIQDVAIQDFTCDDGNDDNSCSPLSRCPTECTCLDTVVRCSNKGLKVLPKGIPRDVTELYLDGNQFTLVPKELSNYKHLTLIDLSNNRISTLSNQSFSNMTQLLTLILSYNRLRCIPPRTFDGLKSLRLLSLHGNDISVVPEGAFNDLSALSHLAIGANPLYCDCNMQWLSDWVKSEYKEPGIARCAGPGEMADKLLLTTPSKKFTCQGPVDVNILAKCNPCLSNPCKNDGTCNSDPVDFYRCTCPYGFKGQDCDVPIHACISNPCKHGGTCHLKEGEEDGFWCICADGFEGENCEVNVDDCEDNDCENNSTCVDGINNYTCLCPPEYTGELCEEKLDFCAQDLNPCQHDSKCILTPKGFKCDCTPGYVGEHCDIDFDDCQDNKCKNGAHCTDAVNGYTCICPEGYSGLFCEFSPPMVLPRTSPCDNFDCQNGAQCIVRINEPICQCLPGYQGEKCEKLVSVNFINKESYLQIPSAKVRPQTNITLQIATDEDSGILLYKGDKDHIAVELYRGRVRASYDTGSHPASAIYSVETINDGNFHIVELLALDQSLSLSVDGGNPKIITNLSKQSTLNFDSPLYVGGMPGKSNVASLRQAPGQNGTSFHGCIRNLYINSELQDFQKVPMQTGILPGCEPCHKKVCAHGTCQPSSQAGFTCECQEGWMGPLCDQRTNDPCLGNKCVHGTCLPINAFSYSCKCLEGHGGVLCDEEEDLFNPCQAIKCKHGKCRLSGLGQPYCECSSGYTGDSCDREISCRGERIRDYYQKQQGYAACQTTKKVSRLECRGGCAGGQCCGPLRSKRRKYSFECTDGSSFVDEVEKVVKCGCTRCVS
Assay: SPR

B1: Robo4-Fc (protein)
chain: QDSPPQILVHPQDQLFQGPGPARMSCQASGQPPPTIRWLLNGQPLSMVPPDPHHLLPDGTLLLLQPPARGHAHDGQALSTDLGVYTCEASNRLGTAVSRGARLSVAVLREDFQIQPRDMVAVVGEQFTLECGPPWGHPEPTVSWWKDGKPLALQPGRHTVSGGSLLMARAEKSDEGTYMCVATNSAGHRESRAARVSIQEPQDYTEPVELLAVRIQLENVTLLNPDPAEGPKPRPAVWLSWKVSGPAAPAQSYTALFRTQTAPGGQGAPWAEELLAGWQSAELGGLHWGQDYEFKVRPSSGRARGPDSNVLLLRLPEKVPSAPPQEVTLKPGNGTVFVSWVPPPAENHNGIIRGYQVWSLGNTSLPPANWTVVGEQTQLEIATHMPGSYCVQVAAVTGAGAGEPSRPVCLLLEQAMERATQEPSEHGPWTLEQLRATLKRPEVIATCGVALWLLLLGTAVCIHRRRRARVHLGPGLYRYTSEDAILKHRMDHSDSQWLADTWRSTSGSRDLSSSSSLSSRLGADARDPLDCRRSLLSWDSRSPGVPLLPDTSTFYGSLIAELPSSTPARPSPQVPAVRRLPPQLAQLSSPCSSSDSLCSRRGLSSPRLSLAPAEAWKAKKKQELQHANSSPLLRGSHSLELRACELGNRGSKNLSQSPGAVPQALVAWRALGPKLLSSSNELVTRHLPPAPLFPHETPPTQSQQTQPPVAPQAPSSILLPAAPIPILSPCSPPSPQASSLSGPSPASSRLSSSSLSSLGEDQDSVLTPEEVALCLELSEGEETPRNSVSPMPRAPSPPTTYGYISVPTASEFTDMGRTGGGVGPKGGVLLCPPRPCLTPTPSEGSLANGWGSASEDNAASARASLVSSSDGSFLADAHFARALAVAVDSFGFGLEPREADCVFIDASSPPSPRDEIFLTPNLSLPLWEWRPDWLEDMEVSHTQRLGRGMPPWPPDSQISSQRSQLHCRMPKAGASPVDYS
- binding result: no binding
